{"source": "paper PMC2034099", "about": "“Preparation and preclinical evaluation of humanised A33 immunoconjugates for radioimmunotherapy” (British Journal of Cancer, 1995)", "binders": {"B1": {"name": "murine A33 IgG (antibody, V domains shown)", "VH": "EVKLVESGGGLVKPGGSLKLSCAASGFAFSTYDMSWVRQTPEKRLEWVATISSGGSYTYYLDSVKGRFTISRDSARNTLYLQMSSLRSEDTALYYCAPTTVVPFAYWGQGTLVTVSA", "VL": "DIVMTQSQKFMSTSVGDRVSITCKASQNVRTVVAWYQQKPGQSPKTLIYLASNRHTGVPDRFTGSGSGTDFTLTISNVQSEDLADYFCLQHWSYPLTFGSGTKLEVK", "notes": "the scan text reads CAPr at Kabat 92-96, restored to CAPTT from the hA33 line (94-102 are said to be murine); mouse gamma-2a heavy chain constant region ('the murine y-2a of the parent antibody'); mouse light chain constant region; IgG2a; also called mA33; mouse A33; copies: 2 + 2"}}, "molecular_target": "T1, A33 antigen (Homo sapiens, endogenous on SW1222 and …, UniProt Q99795)", "T1 construct": "A33 antigen on human colorectal tumour cell lines; also called the antigen recognised by A33; source: endogenous, on SW1222 and Colo205 human colorectal tumour cells", "T1 sequence (Q99795 22-319)": "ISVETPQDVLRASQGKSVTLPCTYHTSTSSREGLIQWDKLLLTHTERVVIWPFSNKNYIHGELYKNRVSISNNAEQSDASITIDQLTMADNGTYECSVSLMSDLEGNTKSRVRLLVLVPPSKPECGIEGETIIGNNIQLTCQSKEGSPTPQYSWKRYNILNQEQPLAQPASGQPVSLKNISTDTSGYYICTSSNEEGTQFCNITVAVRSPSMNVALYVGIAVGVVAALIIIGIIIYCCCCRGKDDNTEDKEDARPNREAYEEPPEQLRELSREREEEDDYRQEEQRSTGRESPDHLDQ", "experiment": "flow cytometry on cells; Scatchard analysis: FITC-labelled antibodies titrated on 2.8 x 10^5 SW1222 cells, 2 h on ice, 350 ul PBS with 5% FCS and 0.1% sodium azide; fluorescence per cell calibrated with standard beads; linear regression", "settings": "one partner purified"}
{"binder": "B1", "values": [{"measurement": "Kd", "result": 1.28, "unit": "nM"}]}
